The values that follow come from patent publication US20250313626A1 (HARBOUR BIOMED SHANGHAI, published 2025).

Like-named read-outs stand apart in the source and are kept apart here.

For assay [1], the target named is T1, human CD200R1 isoform a on CHOK1 cells (CHOK1/hCD200R1a) (human, UniProt Q8TD46 25-348).
T1 construct: also called CHOK1/CD200R1a
T1 sequence: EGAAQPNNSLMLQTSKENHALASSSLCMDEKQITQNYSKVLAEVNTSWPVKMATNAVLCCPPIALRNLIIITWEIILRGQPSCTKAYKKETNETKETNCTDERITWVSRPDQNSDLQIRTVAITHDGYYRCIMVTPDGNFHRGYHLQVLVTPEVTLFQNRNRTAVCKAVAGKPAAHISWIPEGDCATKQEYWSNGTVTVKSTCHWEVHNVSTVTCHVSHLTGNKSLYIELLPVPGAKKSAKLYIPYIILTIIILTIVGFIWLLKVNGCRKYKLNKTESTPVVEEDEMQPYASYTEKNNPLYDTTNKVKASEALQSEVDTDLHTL
Description: flow cytometry blocking assay: biotin-labelled human CD200 binding to CHOK1/hCD200R1a cells; y axis Inhibition %. The method, then: (§1) In brief, CHOK1/hCD200R1a cells were digested and resuspended in 2% BSA in PBS. […] The cells were placed at 4° C. and incubated for 1 hour in the dark. […] 100 μL/well of pre-cooled PBS containing 2% BSA was added to rinse the cells twice, centrifugation was performed at 500 g, 4° C. for 5 minutes, and the supernatant was discarded. Fluorescent secondary antibody (PE Streptavidin, BD, Cat #: 554061, 1:200) was added at 100 μL/well, and incubation was performed at 4° C. for 30 minutes in the dark. The cells were washed twice with 200 μL/well of pre-cooled PBS, and were centrifuged at 500 g, 4° C. for 5 minutes, and the supernatant was discarded. Finally, 200 μL/well of pre-cooled PBS was used to resuspend the cells, and the fluorescence signal values were read using ACEA Novocyte 3000 flow cytometer. IC50 values were calculated.

In assay [2] the target is T1, human CD200R1 isoform a on CHOK1 cells …. Description: flow cytometry, CHOK1/hCD200R1a cells (FITC-Mean); table beside the curves, head without unit, x axis Log [Ab] (nM).
The target of assay [3] is T2, Cynomolgus macaques CD200R1 isoform a on CHOK1 cells (CHOK1/cynoCD200R1a) (Cynomolgus macaques).
T2 chain: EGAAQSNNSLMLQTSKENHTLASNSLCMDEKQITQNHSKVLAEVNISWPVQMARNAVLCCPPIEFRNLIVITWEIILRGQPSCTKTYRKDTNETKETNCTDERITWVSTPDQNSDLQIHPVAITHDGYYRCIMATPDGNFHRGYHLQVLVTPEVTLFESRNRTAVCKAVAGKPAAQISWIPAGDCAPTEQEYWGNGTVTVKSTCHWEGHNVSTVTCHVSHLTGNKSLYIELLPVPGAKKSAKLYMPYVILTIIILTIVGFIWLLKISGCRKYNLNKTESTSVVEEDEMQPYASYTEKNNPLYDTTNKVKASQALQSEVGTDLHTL
Description: flow cytometry, CHOK1/cynoCD200R1a cells (APC-A Mean); table beside the curves.

Assay [4] deals with T1, human CD200R1 isoform a on CHOK1 cells …. Description: flow cytometry, CHOK1/hCD200R1a cells (FITC-Mean); table beside the curves. The method, then:
(§2) This example is intended to investigate the in vitro binding activity of human anti-CD200R1 monoclonal antibodies to human/Cynomolgus macaques CD200R1a expressed on the surface of cells. The anti-CD200R1 antibodies were produced as described in Example 3.4 and the binding experiments at the cell level were performed using CHOK1/hCD200R1a and CHOK1-cynoCD200R1a.
(§3) Briefly, CHOK1/hCD200R1a cells and CHOK1-cynoCD200R1a cells were digested, and collected, and then were resuspended in PBS containing 2% BSA, respectively. The cell density was adjusted to 1×10⁶ cells/mL. The cells were seeded in a 96-well V-bottom plate (Corning, #3894) at 100 μL/well, followed by the addition of test antibodies and reference antibodies in a series diluted concentration, each at 100 μL/well. The cells were incubated away from light at 4° C. for 1 h. Thereafter, the cells in each well were rinsed twice with 100 μL of pre-cooled PBS containing 2% BSA, and centrifuged at 500 g at 4° C. for 5 min, and then the supernatant was discarded. 100 μL of fluorescent secondary antibody (Alexa Fluor 488-conjugated AffiniPure Goat Anti-Human IgG, Fcγ Fragment Specific, Jackson, #109-545-098, diluted in a 1:1000 ratio) was added in each well, and the plate was incubated away from light at 4° C. for 1 h. The cells in each well were rinsed twice with 100 μL of pre-cooled PBS containing 2% BSA, and centrifuged at 500 g at 4° C. for 5 min, and then the supernatant was discarded. Finally, the cells in each well were resuspended in 200 μL of pre-cooled PBS containing 2% BSA, and the fluorescence signal values were read using a BD CantoII flow cytometer.

For assay [5] the target is unchanged. Description: flow cytometry blocking assay: antibody titrated against biotin-labelled human CD200 binding to CHOK1/hCD200R1a cells; head prints EC50 without unit, x axis Log [Ab] (nM), y axis Inhibition %. The protocol:
as §1

For assay [6], the target named is T3, CD200R1a on PathHunter Jurkat CD200R1a signaling cells (Eurofins DiscoverX, 93-1136C19) (human, UniProt Q8TD46 25-348).
T3 sequence: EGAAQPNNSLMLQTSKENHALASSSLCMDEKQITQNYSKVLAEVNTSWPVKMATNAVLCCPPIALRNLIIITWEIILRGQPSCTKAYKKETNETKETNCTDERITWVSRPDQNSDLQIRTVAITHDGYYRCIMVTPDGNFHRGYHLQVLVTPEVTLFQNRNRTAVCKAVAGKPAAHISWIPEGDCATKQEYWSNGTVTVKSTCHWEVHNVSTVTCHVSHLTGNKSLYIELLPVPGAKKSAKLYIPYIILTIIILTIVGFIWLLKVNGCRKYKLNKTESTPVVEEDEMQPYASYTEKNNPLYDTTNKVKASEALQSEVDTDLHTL
Description: cell-based or functional assay.

The target of assay [7] is T2, Cynomolgus macaques CD200R1 isoform a …. Description: flow cytometry, CHOK1/cynoCD200R1a cells (APC-A Mean); table beside the curves.
For assay [8], the target named is T1, human CD200R1 isoform a on CHOK1 cells …. Description: flow cytometry, CHOK1/hCD200R1a cells (FITC-Mean); table beside the curves, head without unit, x axis Log [Ab] (nM). This is another data set of the same source.
For assay [9] the target is unchanged. Description: flow cytometry blocking assay: biotin-labelled human CD200 binding to CHOK1/hCD200R1a cells; y axis Inhibition %. The method, then: as §1
The source holds these as a separate data set.

The target is the same in assay [10]. Description: flow cytometry, CHOK1/hCD200R1a cells (FITC-Mean); table beside the curves. The method, then: as §2, §3
This is another data set of the same source.

Assay [11] has the same target. Description: flow cytometry blocking assay: antibody titrated against biotin-labelled human CD200 binding to CHOK1/hCD200R1a cells; head prints EC50 without unit, x axis Log [Ab] (nM), y axis Inhibition %. The protocol:
as §1
This is another data set of the same source.

Assay [12] addresses T3, CD200R1a on PathHunter Jurkat CD200R1a …. Description: cell-based or functional assay. This is another data set of the same source.
The target in a further assay is T4, Mouse CD200R1-His (mouse, UniProt Q9ES57 26-238, limits assumed).
T4 sequence (looked up): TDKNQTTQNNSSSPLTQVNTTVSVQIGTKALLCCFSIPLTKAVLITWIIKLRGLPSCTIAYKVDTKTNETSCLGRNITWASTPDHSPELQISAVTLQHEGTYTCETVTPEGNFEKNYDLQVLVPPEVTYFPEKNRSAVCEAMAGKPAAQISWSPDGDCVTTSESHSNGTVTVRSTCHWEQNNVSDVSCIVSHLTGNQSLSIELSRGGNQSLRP
Description: BLI (Octet), antibody captured on anti-human Fc sensor. The protocol:
To determine the binding affinities of the anti-CD200R1 antibodies to CD200R1a proteins of various species (mouse, human, Cynomolgus macaques), bio-layer interferometry (BLI) assays were carried out using an Octet® RED96e instrument. Antibodies were produced as described in Example 3.4 and diluted to 5 μg/mL using freshly prepared 1× kinetic buffer (10× kinetic buffer (Catalog #18-1105, ForteBio) was diluted with PBS(Catalog #E607016-0500, BBI Life Sciences)) and were captured on the surface of anti-human Fc (AHC) Octet biosensors (Catalog #18-5060, ForteBio) to reach capture levels between 0.9-1.2 nm. The biosensors having the captured anti-CD200R1 antibodies were then dipped in wells containing 2-fold serial dilutions of CD200R1a proteins to detect association signals, followed by dissociation steps in wells containing 1× kinetic buffer. The sensorgrams were recorded and the reference signals were subtracted before curve fitting using ForteBio Data Analysis 11.0 software. Association rates (kₒₙ) and dissociation rates (koff) were calculated using a simple one-to-one Langmuir binding model. The equilibrium dissociation constant (KD) was calculated as the ratio of koff/kₒₙ.

B1: PR007444 (antibody, human IgG1, kappa)
heavy: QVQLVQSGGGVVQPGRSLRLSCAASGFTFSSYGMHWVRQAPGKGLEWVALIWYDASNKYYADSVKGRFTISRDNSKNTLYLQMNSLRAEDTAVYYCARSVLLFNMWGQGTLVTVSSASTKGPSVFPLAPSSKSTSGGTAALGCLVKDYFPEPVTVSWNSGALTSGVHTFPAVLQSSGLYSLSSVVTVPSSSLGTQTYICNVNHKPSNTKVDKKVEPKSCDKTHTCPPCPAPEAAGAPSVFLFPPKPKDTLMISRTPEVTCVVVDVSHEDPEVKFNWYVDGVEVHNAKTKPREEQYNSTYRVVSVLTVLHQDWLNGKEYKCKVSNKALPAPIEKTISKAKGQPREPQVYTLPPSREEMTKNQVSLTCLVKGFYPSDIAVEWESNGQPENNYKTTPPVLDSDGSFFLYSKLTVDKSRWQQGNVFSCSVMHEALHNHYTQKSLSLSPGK
light: DIQMTQSPPSLSASVGDRVTITCRASQSISSYLNWFQQKAGKAPKLLISATSNLQSGVPSRFSGSGSGTDFTLTISSLQPEDLATYYCQQTYSSPYTFGQGTKVEIKRTVAAPSVFIFPPSDEQLKSGTASVVCLLNNFYPREAKVQWKVDNALQSGNSQESVTEQDSKDSTYSLSSTLTLSKADYEKHKVYACEVTHQGLSSPVTKSFNRGEC
notes: PTM variant of PR006895 (human IgG1)
With B1, the “Blocking(Max)” value in assay [1] was 86.6%. Besides, the values for the EC50 in [2], in assay [3] and in assay [5] were 150 pM, 8740 pM and 92.6 pM, respectively. Also, the “MFI (MAX)” value in assay [3] was 51700. In addition, the “MFI(Max)” value in [4] is 10800. Also, the “IC50 of the inhibition of CD200-induced PathHunter Jurkat CD200R1a luminescence (CHOK1/hCD200 cells as CD200 source)” value in assay [6] came to 755 pM.

B2: PR007974 (antibody, human IgG1, kappa, V domains shown)
VH: QVQLVESGGGVVQPGRSLRLSCAASGFTFSYYGFHWVRQAPGKGLEWLGLIWSDARHKDYADSVKGRFTISRDNSKNTLYLQMNSLRAEDTAVYYCARDRIVGEGFDYWGQGTLVTVSS
VL: DIVMTQSPLSLPVTPGEPASISCRSSQSLLHRSGYNYLDWYLQKPGQSPQLLIYLGSYRASGVPDRFSGSGSGTDFTLKISRVEAEDVGVYYCQQGIQTTYTFGQGTKLEIKR
notes: PTM variant of PR006839 (human IgG1)
B2: the EC50 was 6820 pM in assay [7], 277 pM in assay [8] and 240 pM in [11]. In addition, the “MFI (MAX)” value in assay [7] came out at 52200. In addition, in [9], the “Blocking(Max)” value was found to be 98%. Also, the “MFI(Max)” value in assay [10] came out at 18900.

B3: PR005512 (antibody, human IgG1, kappa, L234A L235A, V domains shown)
VH: QVQLVESGGGVVQPGRSLRLSCVASGFTFSSYGMHWVRQAPGKGLEWVAIIWNDGSNRYYADSVKGRFTISRDNSKNTLYLQMNSLRAEDTAVYYCARDRIVGAGFDYWGQGTLVTVSS
VL: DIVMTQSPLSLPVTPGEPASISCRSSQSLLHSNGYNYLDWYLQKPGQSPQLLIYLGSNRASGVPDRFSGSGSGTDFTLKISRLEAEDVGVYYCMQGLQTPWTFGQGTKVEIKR
notes: also called PR60-012; PRE04512
Regarding B3, the “IC50 of the inhibition of CD200-induced PathHunter Jurkat CD200R1a luminescence (CHOK1/hCD200 cells as CD200 source); head without unit, x axis Log [Ab] (nM)” value in assay [12] was determined as 2.63 nM. For the same molecule, in the assay with Mouse CD200R1-His, the binding result is recorded as “no binding”.
